Measured values as given in patent US20060014264, “Cre/lox system with lox sites having an extended spacer region” (Stowers Institute for Medical Research, published 2006).

Experiments:
Cre 286::LRPHW = target: T1, Cre 286::LRPHW (Enterobacteria phage P1, UniProt P06956 SEQ:1-348); test: cleavage_in_vitro; covalent complex, top strand; 30 nM Cre; conditions: chain copies: 2 per lox site (stated); label: 5'-32P
T1 chain: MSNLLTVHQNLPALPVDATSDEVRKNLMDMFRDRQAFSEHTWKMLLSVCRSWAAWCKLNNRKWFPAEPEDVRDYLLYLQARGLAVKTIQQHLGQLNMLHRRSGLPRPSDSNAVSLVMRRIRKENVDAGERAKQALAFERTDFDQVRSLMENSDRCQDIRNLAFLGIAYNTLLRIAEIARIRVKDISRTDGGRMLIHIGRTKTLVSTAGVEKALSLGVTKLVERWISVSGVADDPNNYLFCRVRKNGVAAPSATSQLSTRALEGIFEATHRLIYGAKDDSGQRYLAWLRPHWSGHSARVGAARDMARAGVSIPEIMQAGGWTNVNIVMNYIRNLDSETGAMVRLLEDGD
Procedure: (§1) DNA cleavage reactions were in a 12 μl reaction volume containing Cre reaction buffer, 83 ng/μl BSA, 8.3 ng/μl calf thymus DNA, […] appropriate ³²P-labeled DNA substrate and 30 nM of Cre. Reactions were incubated at 37° C. for 1 hour, terminated by addition of 12 μl of 2×SDS-gels loading buffer (x: 40 mM Tris-HCl pH 6.8, 50 mM DTT, 1.0% SDS, 7.5% Glycerol, 0.01% Bromphenol Blue), heated at 95° C. for 5 minutes and then analyzed by 15% SDS-PAGE. Gels were quantified using a PhosphorImager (Molecular Dynamics, Sunnyvale, Calif.) scanner.
(§2) The ability of each mutant to catalyze cleavage at the lox⁺³ site on an unnicked 54 bp substrate was examined. Cleavage by Cre is easily detected as a slowly moving band on a polyacrylamide gel resulting from the formation of a protein-DNA complex in which the catalytic tyrosine of Cre is covalently linked to a 3′ phosphate of the labeled DNA substrate at the site of cleavage (FIG. 3).

Cre 18::CGRNA+P15L = target: T2, Cre 18::CGRNA+P15L (Enterobacteria phage P1, UniProt P06956 SEQ:1-348); test: as above; conditions: chain copies: 2 per lox site (stated); label: 5'-32P
T2 chain: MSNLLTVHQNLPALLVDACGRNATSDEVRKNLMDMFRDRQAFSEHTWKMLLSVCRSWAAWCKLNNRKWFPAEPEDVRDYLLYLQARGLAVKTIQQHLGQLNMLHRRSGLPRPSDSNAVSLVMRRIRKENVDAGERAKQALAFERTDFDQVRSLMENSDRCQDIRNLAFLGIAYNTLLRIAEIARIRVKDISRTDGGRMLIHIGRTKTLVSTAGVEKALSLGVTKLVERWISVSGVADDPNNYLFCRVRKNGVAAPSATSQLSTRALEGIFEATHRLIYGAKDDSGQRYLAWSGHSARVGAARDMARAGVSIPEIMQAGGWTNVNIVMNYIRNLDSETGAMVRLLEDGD
Procedure: as §1, §2

Cre 24::CGRIR = target: T3, Cre 24::CGRIR (Enterobacteria phage P1, UniProt P06956 SEQ:1-348); test: as above; conditions: chain copies: 2 per lox site (stated); label: 5'-32P
T3 chain: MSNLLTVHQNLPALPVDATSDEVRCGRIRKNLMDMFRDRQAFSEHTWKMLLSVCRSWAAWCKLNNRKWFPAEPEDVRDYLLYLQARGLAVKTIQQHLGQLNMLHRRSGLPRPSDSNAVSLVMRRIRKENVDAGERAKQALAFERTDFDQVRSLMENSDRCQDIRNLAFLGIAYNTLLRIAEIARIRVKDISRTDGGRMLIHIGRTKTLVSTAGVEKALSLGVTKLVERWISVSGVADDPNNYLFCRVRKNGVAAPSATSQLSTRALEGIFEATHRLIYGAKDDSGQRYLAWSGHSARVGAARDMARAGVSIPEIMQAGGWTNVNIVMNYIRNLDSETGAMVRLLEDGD
Procedure: as §1, §2

Cre wt = Cre wt (Enterobacteria phage P1, UniProt P06956 SEQ:1-343); test: cleavage_in_vitro; reference for mutants; cleavage strongly reduced on intact lox+3; 30 nM Cre, 10 mM MgCl2, 37 C; conditions: chain copies: 2 per lox site (stated); label: 5'-32P
Procedure: as §1, §2

[1] = target: T4, Cre 24::CGRIR (in E. coli) (Enterobacteria phage P1, UniProt P06956 SEQ:1-348); test: cell_activity; background 0.001%; conditions: chain copies: 2
T4 chain: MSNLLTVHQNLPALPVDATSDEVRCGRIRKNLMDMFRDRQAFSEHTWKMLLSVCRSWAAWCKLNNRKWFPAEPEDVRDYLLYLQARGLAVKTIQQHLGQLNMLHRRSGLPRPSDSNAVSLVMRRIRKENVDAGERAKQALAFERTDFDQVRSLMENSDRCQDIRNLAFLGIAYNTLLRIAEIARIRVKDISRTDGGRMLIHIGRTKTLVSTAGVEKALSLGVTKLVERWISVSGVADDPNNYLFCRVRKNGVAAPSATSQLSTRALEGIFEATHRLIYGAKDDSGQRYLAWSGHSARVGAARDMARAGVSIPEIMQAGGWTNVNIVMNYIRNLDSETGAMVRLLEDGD

[2] = target: T5, Cre 286::LRPHW (in E. coli) (Enterobacteria phage P1, UniProt P06956 SEQ:1-348); test: cell_activity; background 0.001%; conditions: chain copies: 2
T5 chain: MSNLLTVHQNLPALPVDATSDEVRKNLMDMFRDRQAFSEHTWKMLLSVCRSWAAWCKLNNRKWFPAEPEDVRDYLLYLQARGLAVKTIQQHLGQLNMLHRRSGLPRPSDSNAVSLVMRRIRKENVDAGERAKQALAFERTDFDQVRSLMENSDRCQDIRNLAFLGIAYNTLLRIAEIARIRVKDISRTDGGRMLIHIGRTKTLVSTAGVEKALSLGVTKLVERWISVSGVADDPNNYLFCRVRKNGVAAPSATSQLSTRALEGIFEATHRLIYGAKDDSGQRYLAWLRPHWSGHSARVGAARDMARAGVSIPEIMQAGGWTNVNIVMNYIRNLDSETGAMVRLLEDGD

Cre wt (in E. coli) = Cre wt (in E. coli) (Enterobacteria phage P1, UniProt P06956 SEQ:1-343); test: cell_activity; background 0.001%; conditions: chain copies: 2
[3] = target: T6, Cre 18::CGRNA+P15L (in E. coli) (Enterobacteria phage P1, UniProt P06956 SEQ:1-348); test: cell_activity; background 0.001%; conditions: chain copies: 2
T6 chain: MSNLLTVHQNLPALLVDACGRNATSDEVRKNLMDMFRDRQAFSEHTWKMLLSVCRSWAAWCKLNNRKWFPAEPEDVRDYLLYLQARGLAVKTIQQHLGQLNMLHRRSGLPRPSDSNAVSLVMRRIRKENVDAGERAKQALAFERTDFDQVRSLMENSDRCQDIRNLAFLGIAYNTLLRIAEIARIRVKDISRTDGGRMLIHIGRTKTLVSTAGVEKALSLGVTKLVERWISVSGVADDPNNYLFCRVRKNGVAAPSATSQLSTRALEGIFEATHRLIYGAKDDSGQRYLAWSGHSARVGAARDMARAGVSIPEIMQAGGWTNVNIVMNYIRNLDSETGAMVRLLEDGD

[4] = target: T7, Cre 280::CGRTG (in E. coli) (Enterobacteria phage P1, UniProt P06956 SEQ:1-348); test: cell_activity; background 0.001%; conditions: chain copies: 2
T7 chain: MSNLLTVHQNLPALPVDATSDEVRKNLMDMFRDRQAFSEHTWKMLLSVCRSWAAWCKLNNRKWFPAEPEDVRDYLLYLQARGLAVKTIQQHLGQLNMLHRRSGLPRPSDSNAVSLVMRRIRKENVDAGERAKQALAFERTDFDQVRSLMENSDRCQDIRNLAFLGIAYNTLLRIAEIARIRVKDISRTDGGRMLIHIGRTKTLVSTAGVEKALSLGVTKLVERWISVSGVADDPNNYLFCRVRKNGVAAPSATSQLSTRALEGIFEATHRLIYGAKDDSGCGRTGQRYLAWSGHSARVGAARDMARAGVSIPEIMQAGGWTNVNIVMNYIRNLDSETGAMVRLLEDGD

B1: lox+3 cleavage oligonucleotide KC341 duplex (dsDNA)
DNA 1: TCGAGTGCACAACTTCGTATAATGATTTATGCTATACGAAGTTATCATTCGCTAG
DNA 2: CTAGCGAATGATAACTTCGTATAGCATAAATCATTATACGAAGTTGTGCACTCGA
Cre 286::LRPHW
  cleavage (covalent Cre-DNA complex): 4 fold vs wt Cre
Cre 18::CGRNA+P15L
  cleavage (covalent Cre-DNA complex): 20 fold vs wt Cre
Cre 24::CGRIR
  cleavage (covalent Cre-DNA complex): 4 fold vs wt Cre
Cre wt
  covalent cleavage complex formation: 1 fold vs wt Cre

B2: lox+3 site (in plasmid or PCR fragment) (dsDNA)
DNA 1: ACAACTTCGTATAATGATTTATGCTATACGAAGTTAT
DNA 2: ATAACTTCGTATAGCATAAATCATTATACGAAGTTGT
[1]
  activity: 94 % recombination (KnR)
[2]
  activity: 92 % recombination (KnR)
Cre wt (in E. coli)
  activity: 0.1 % recombination (KnR)
[3]
  activity: 56 % recombination (KnR)
[4]
  activity: 61 % recombination (KnR)
